We go through one protein from publication doi:10.1101/569251 (bioRxiv, 2019).

The series concerns the molecule itself.

B1: SEPT7 (residues 29-437) with N-terminal His-tag (domain or fragment, human, UniProt Q16181-1 29-437, looked up)
chain: GYVGFANLPNQVYRKSVKRGFEFTLMVVGESGLGKSTLINSLFLTDLYSPEYPGPSHRIKKTVQVEQSKVLIKEGGVQLLLTIVDTPGFGDAVDNSNCWQPVIDYIDSKFEDYLNAESRVNRRQMPDNRVQCCLYFIAPSGHGLKPLDIEFMKRLHEKVNIIPLIAKADTLTPEECQQFKKQIMKEIQEHKIKIYEFPETDDEEENKLVKKIKDRLPLAVVGSNTIIEVNGKRVRGRQYPWGVAEVENGEHCDFTILRNMLIRTHMQDLKDVTNNVHYENYRSRKLAAVTYNGVDNNKNKGQLTKSPLAQMEEERREHVAKMKKMEMEMEQVFEMKVKEKVQKLKDSEAELQRRHEQMKKNLEAQHKELEEKRRQFEDEKANWEAQQRILEQQNSSRTLEKNKKKGKIF
For B1, the binding result is “binds”.
